Laboratory results reported in paper PMC7192616.
Substitutions are numbered along the chain they refer to.

Columns and labels:
Assay in all cases: ITC
mRBM20(513-621) = target: T1, mRBM20(513-621) (Mus musculus, UniProt Q3UQS8 513-621)
T1 sequence: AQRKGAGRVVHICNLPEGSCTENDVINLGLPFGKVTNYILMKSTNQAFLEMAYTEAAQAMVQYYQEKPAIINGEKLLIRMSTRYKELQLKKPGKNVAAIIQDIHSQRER

mRBM20(513-621) F560A = target: T2, mRBM20(513-621) F560A (Mus musculus, UniProt Q3UQS8 513-621, F560A)
T2 sequence: T1 sequence with F48A

mRBM20(513-621) R595M = target: T3, mRBM20(513-621) R595M (Mus musculus, UniProt Q3UQS8 513-621, R595M)
T3 sequence: T1 sequence with R83M

mRBM20(513-621) Q558A = target: T4, mRBM20(513-621) Q558A (Mus musculus, UniProt Q3UQS8 513-621, Q558A)
T4 sequence: T1 sequence with Q46A

[1] = target: T5, mRBM20(513-609) delta-alpha3 (Mus musculus, UniProt Q3UQS8 513-609)
T5 sequence: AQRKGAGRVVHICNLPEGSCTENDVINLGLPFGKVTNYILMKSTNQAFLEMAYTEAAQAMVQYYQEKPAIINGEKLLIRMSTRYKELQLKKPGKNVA

mRBM20(513-649) +RS = target: T6, mRBM20(513-649) +RS (Mus musculus, UniProt Q3UQS8 513-649)
T6 sequence: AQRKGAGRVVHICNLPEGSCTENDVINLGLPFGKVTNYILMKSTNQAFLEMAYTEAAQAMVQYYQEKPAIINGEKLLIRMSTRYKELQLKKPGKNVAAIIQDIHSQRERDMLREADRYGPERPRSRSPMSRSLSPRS

mRBM20(513-621) Y596A = target: T7, mRBM20(513-621) Y596A (Mus musculus, UniProt Q3UQS8 513-621, Y596A)
T7 sequence: T1 sequence with Y84A

mRBM20(513-621) R591M = target: T8, mRBM20(513-621) R591M (Mus musculus, UniProt Q3UQS8 513-621, R591M)
T8 sequence: T1 sequence with R79M

mRBM20(513-621) H523A = target: T9, mRBM20(513-621) H523A (Mus musculus, UniProt Q3UQS8 513-621, H523A)
T9 sequence: T1 sequence with H11A

mRBM20(513-621) V537I = target: T10, mRBM20(513-621) V537I (Mus musculus, UniProt Q3UQS8 513-621, V537I)
T10 sequence: T1 sequence with V25I

mRBM20(513-621) N526A = target: T11, mRBM20(513-621) N526A (Mus musculus, UniProt Q3UQS8 513-621, N526A)
T11 sequence: T1 sequence with N14A

mRBM20(513-621) Q577A = target: T12, mRBM20(513-621) Q577A (Mus musculus, UniProt Q3UQS8 513-621, Q577A)
T12 sequence: T1 sequence with Q65A

B1: ACCUUA (ssRNA)
RNA: ACCUUA
B1 showed a Kd (mRBM20(513-621)) of 13 ± 2 µM.

B2: vIRES-SL (structured_RNA)
RNA: GGGACCUGGUCUUUCCAGGUCCC
B2 showed a Kd (mRBM20(513-621)) of 8 ± 1 µM.

B3: AUCUCA (ssRNA)
RNA: AUCUCA
For B3, the Kd (mRBM20(513-621)) was 95 ± 1 µM.

B4: AUCCUA (ssRNA)
RNA: AUCCUA
B4 was tested, and the Kd (mRBM20(513-621)) was 210 ± 3 µM.

B5: AUCUUA (ssRNA)
RNA: AUCUUA
In the case of B5, the Kd (mRBM20(513-621) F560A) is reported as 156 ± 6 µM, the Kd (mRBM20(513-621) R595M) is reported as 29.3 ± 0.3 µM and the Kd (mRBM20(513-621) Q558A) is reported as 3.4 ± 0.7 µM. The Kd [1] was 43 ± 1 µM, the Kd (mRBM20(513-649) +RS) was 4.3 ± 0.4 µM and the Kd (mRBM20(513-621)) was 5.7 ± 0.2 µM. For the same binder, the Kd (mRBM20(513-621) Y596A) was 74 ± 13 µM, the Kd (mRBM20(513-621) R591M) was 12.4 ± 0.6 µM and the Kd (mRBM20(513-621) H523A) was 67 ± 12 µM. For the same binder, the Kd (mRBM20(513-621) V537I) was 10.3 ± 0.7 µM, the Kd (mRBM20(513-621) N526A) was 9 ± 1 µM and the Kd (mRBM20(513-621) Q577A) was 6.6 ± 0.8 µM.

B6: GUCUUA (ssRNA)
RNA: GUCUUA
With B6 the Kd (mRBM20(513-621)) was 4 ± 0.1 µM.

B7: AUCUUG (ssRNA)
RNA: AUCUUG
Work on B7 yielded a Kd (mRBM20(513-621)) of 4.8 ± 0.1 µM.

B8: AUUUUA (ssRNA)
RNA: AUUUUA
In the case of B8, the Kd (mRBM20(513-621)) is reported as 140 ± 30 µM.
